From publication PMC4570534

Biological target: WT‐EsxB (Bacillus anthracis)
Experiment: SEC

## WT‐EsxB (natural protein)
  stoichiometry N: 4
